We go through two substances from patent US20090112150A1, “CAVITATION ENHANCED TREATMENT THROUGH LOCAL DELIVERY” (IMARX THERAPEUTICS, INC., priority 2004, published 2009).

A short description of the series: Loading of thrombolytic drugs into microbubbles, particle sizing/counting on Accusizer 770. Type of series: physicochemical. The note with it: MX115 microbubbles. As to the method: MX115 was activated in the vial. Different concentrations of thrombolytic drugs, Streptokinase (Sigma, Milwaukee, Wis.) and t-PA (Genentech, South San Francisco, Calif.), were added to the vial and incubated with the microbubbles for 5 minutes before analyzing the mixtures using a Model 770 Accusizer (Particle Sizing Systems, Santa Barbara, Calif.). […] As much as 5 mg of the drug could be loaded into the MRX 115 microbubbles.

The mark [1] stands for this setting: protein loading in microbubbles 0.1 mg, 5 minutes incubation.
The mark [2] stands for this setting: protein loading in microbubbles 1 mg, 5 minutes incubation.
Where [3] appears, read: protein loading in microbubbles 5 mg, 5 minutes incubation.
[4] abbreviates: protein loading in microbubbles 0.010 mg, 5 minutes incubation.

Regarding Streptokinase, the “Number of particles/mL” value is reported as 1.1 × 10^9 particles/mL under setting [1], 1.1 × 10^9 particles/mL under setting [2] and 0.5 × 10^9 particles/mL under setting [3]. The Number wt mean is, setting by setting: under setting [1], 1.79 μ; under setting [2], 1.87 μ; under setting [3], 2.44 μ. The substance further gave a Volume wt mean under setting [1] of 13.6 μ, a Volume wt mean under setting [2] of 17.1 μ and a Volume wt mean under setting [3] of 52.9 μ.

As for Tissue Plasminogen Activator [tPA], under “After 24 hrs”, the “Number of particles/mL” value is recorded as 1.3 × 10^9 particles/mL, the Number wt mean came to 2.20 μ and the Volume wt mean is reported as 24.4 μ. Under setting [4], the “Number of particles/mL” value is reported as 1.1 × 10^9 particles/mL, the Number wt mean came to 2.27 μ and the Volume wt mean turned out to be 23.5 μ.
